Assay results published in the supplement of paper PMC10065799, “High-throughput profiling of sequence recognition by tyrosine kinases and SH2 domains using bacterial peptide display” (eLife, 2023).

What was measured:
AncSZ = test: phosphorylation enrichment, bacterial display (enrichment ratio); higher = better substrate or ligand; peptides without Tyr show the background
EPHB1 = EPHB1 (UniProt P54762); test: as above
EPHB2 = EPHB2 (UniProt P29323); test: as above
FGFR1 = FGFR1 (UniProt P11362); test: as above
Chain of FGFR1 (P11362 whole entry, looked up): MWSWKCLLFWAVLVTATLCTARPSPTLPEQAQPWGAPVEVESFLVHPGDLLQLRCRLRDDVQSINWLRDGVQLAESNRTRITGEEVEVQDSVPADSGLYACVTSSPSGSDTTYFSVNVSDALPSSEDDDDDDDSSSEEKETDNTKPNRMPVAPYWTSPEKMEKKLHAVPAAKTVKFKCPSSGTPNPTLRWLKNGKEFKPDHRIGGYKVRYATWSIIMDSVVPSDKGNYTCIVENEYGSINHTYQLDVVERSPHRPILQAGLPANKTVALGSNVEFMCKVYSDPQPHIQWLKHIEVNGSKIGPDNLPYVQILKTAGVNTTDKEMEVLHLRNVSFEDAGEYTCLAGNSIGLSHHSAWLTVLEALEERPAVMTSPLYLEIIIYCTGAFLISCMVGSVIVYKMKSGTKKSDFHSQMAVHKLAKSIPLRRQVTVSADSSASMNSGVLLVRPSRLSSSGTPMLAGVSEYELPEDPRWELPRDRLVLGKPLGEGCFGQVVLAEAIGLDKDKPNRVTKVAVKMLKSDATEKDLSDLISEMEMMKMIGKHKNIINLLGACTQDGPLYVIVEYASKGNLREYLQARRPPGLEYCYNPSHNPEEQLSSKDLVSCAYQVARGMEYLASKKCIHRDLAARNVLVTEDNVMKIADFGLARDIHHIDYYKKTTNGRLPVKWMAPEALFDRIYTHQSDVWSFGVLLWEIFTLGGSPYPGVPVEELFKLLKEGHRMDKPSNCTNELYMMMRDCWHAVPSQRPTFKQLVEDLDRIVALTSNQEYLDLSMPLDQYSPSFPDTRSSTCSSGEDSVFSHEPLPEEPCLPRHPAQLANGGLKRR

FGFR3 = FGFR3 (UniProt P22607); test: as above
Chain of FGFR3 (P22607 whole entry, looked up): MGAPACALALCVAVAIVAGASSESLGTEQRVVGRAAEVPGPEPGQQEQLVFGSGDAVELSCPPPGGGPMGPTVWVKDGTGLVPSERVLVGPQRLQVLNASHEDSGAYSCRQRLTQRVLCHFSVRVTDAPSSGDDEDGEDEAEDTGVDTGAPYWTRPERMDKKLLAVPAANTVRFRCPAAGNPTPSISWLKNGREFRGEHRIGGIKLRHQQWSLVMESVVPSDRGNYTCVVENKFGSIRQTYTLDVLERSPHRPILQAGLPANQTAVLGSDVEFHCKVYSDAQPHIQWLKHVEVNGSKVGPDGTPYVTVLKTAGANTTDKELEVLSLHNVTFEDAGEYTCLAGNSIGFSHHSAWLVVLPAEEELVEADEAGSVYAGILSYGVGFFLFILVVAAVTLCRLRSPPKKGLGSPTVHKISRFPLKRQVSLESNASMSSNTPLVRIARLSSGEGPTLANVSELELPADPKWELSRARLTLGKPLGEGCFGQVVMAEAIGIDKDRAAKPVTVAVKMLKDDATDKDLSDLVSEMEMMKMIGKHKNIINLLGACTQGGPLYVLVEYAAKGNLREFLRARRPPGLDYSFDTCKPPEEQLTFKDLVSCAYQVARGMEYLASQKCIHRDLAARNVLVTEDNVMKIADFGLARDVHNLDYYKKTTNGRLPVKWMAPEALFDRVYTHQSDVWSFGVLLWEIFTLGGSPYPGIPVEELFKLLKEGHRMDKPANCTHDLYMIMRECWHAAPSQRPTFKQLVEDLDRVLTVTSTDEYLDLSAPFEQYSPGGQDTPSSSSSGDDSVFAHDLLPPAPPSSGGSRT

Fer (mouse) = test: as above
Fes = Fes (UniProt P07332); test: as above
Chain of Fes (P07332 whole entry, looked up): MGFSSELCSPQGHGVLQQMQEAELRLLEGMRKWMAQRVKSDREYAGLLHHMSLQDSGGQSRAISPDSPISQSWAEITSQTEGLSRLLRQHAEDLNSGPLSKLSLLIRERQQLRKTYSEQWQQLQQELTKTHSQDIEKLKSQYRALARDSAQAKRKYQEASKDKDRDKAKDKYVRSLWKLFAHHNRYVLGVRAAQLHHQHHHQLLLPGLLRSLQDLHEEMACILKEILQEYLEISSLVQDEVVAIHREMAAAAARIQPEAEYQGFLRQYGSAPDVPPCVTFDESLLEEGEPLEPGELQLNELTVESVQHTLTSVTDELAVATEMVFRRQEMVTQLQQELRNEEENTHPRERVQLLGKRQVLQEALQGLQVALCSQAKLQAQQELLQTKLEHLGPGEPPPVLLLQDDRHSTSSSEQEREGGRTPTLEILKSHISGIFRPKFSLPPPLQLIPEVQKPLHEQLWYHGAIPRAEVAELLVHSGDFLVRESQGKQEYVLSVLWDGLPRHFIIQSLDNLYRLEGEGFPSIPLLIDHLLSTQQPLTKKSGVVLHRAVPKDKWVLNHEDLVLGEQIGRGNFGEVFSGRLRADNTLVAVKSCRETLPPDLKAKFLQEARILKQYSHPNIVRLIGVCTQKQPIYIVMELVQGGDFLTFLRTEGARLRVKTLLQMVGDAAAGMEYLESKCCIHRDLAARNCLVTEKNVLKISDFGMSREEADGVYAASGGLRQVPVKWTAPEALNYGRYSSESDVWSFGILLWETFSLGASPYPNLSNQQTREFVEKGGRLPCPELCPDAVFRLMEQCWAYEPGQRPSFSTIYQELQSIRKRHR

Fyn = Fyn (UniProt P06241); test: as above
Hck = Hck (UniProt P08631); test: as above
Jak2 = Jak2 (UniProt O60674); test: as above
Chain of Jak2 (O60674 whole entry, looked up): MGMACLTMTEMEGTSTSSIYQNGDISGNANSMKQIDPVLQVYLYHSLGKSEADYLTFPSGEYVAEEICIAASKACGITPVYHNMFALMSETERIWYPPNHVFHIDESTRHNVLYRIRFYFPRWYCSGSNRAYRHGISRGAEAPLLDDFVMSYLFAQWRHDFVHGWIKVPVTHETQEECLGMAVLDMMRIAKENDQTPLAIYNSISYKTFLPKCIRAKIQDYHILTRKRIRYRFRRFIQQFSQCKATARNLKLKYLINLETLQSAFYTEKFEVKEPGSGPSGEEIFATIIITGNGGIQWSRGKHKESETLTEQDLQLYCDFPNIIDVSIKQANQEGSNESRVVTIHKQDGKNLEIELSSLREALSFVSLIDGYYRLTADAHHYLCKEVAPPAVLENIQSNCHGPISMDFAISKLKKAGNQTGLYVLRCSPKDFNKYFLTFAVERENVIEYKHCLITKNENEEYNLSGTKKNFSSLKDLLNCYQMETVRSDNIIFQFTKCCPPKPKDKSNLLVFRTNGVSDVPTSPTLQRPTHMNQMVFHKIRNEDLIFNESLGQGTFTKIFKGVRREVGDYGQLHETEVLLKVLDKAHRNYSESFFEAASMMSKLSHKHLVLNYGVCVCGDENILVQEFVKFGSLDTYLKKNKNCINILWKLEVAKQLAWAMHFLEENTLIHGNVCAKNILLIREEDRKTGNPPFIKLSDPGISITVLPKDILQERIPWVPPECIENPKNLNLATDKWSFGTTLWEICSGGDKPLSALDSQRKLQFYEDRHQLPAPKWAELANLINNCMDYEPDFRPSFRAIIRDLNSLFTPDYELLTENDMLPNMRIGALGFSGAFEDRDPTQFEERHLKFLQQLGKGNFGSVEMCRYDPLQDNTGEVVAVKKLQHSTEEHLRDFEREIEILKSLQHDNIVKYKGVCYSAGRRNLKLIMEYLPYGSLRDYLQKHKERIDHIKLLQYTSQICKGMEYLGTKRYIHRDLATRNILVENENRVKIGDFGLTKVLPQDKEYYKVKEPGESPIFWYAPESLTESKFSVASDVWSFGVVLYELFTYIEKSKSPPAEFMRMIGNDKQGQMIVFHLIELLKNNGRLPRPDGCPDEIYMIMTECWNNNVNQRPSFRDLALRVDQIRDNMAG

MERTK = MERTK (UniProt Q12866); test: as above
c-Abl (mouse) = test: as above
c-Src = test: as above
Grb2 SH2 = Grb2 SH2 (UniProt P62993); test: SH2 binding enrichment of the phosphorylated peptide, bacterial display (enrichment ratio); higher = better substrate or ligand; peptides without Tyr show the background
Chain of Grb2 SH2 (P62993 whole entry, looked up): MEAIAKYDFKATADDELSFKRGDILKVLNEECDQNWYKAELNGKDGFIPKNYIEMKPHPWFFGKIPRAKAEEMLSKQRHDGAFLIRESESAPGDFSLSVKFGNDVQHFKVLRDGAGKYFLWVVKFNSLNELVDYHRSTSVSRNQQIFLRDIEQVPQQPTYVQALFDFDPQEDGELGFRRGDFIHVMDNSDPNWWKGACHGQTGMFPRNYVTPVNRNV

SHP2-C SH2 = test: as above
c-Src SH2 = test: as above
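Wherever SH2 binding enrichment of the phosphorylated peptide, bacterial display is given: peptide library displayed on the E. coli surface as eCPX fusions, selected cells deep-sequenced, score is each peptide's frequency after selection divided by its frequency in the input.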
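Wherever phosphorylation enrichment, bacterial display is given: 11-residue human phosphosite peptides and single-mutation variants displayed on the E. coli surface, counted by deep sequencing, each peptide's frequency after selection divided by its frequency in the unselected input library; frequency after pTyr selection over input frequency; kinase dosed for 20-30% of maximal phosphorylation in three min.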

Chain of EPHB2 (P29323 whole entry, looked up): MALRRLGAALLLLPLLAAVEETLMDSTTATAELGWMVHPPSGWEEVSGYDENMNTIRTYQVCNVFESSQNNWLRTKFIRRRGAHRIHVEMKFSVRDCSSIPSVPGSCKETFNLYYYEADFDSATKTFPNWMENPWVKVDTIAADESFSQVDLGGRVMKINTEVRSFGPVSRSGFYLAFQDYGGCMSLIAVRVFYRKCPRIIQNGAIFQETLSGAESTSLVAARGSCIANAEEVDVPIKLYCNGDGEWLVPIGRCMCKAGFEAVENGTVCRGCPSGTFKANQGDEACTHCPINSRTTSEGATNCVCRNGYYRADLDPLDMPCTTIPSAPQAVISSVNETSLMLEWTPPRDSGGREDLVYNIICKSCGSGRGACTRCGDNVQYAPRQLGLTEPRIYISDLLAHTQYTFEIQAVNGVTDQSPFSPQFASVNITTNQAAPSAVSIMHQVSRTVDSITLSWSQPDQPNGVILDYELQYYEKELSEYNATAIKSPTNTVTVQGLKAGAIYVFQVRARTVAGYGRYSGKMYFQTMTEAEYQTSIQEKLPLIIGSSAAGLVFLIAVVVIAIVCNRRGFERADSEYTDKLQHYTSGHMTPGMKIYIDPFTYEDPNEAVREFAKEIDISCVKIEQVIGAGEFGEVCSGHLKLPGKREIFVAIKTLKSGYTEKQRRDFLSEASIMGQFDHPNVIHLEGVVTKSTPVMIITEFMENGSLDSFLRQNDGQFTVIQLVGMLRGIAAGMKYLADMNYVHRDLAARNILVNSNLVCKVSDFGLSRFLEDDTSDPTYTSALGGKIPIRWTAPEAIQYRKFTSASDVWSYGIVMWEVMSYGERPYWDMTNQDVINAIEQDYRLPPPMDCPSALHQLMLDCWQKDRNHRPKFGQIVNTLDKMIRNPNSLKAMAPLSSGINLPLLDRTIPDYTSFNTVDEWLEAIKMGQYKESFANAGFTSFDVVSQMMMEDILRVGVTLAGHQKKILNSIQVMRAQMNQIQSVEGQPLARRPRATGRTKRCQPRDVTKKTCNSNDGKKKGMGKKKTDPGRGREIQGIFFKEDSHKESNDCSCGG

Row | Sequence | phosphorylation enrichment (AncSZ) | phosphorylation enrichment (EPHB1) | phosphorylation enrichment (EPHB2) | phosphorylation enrichment (FGFR1) | phosphorylation enrichment (FGFR3) | phosphorylation enrichment (Fer (mouse)) | phosphorylation enrichment (Fes) | phosphorylation enrichment (Fyn) | phosphorylation enrichment (Hck) | phosphorylation enrichment (Jak2) | phosphorylation enrichment (MERTK) | phosphorylation enrichment (c-Abl (mouse)) | phosphorylation enrichment (c-Src) | SH2 binding enrichment (Grb2 SH2) | SH2 binding enrichment (SHP2-C SH2) | SH2 binding enrichment (c-Src SH2)
1 | DKATEYIQYMR [MAX_Y70] | 0.852 | 0.448 | 0.451 | 0.479 | 0.572 | 0.394 | 0.622 | 0.624 | 0.504 | 0.625 | 0.4 | 0.499 | 0.486 | 0.938 | 1.4 | 0.469
2 | DKGTLYIAEQI [PLBD1_Y375_V377A] | 0.763 | 0.565 | 0.446 | 0.441 | 0.666 | 0.372 | 0.887 | 0.459 | 0.447 | 0.743 | 0.346 | 0.65 | 0.383 | 0.664 | 0.54 | 0.44
3 | DKTGEYPVPLT [ACADM_Y73_I78T] | 0.863 | 0.502 | 0.438 | 0.426 | 0.578 | 0.397 | 0.902 | 0.487 | 0.382 | 0.649 | 0.44 | 0.57 | 0.448 | 0.924 | 0.522 | 0.474
4 | DLGIQYKALKP [CTNNA1_Y177] | 0.754 | 0.568 | 0.442 | 0.507 | 0.631 | 0.498 | 0.853 | 0.388 | 0.485 | 0.725 | 0.453 | 0.573 | 0.449 | 0.897 | 0.594 | 0.361
5 | DLLMQYPKAQG [FAM83C_Y600] | 0.812 | 0.498 | 0.301 | 0.341 | 0.467 | 0.452 | 0.543 | 0.385 | 0.364 | 0.496 | 0.356 | 0.491 | 0.352 | 0.882 | 0.763 | 0.485
6 | DLQDEYDFKRK [STAT1_Y170_C174R] | 0.992 | 0.495 | 0.54 | 0.472 | 0.643 | 0.463 | 1.16 | 0.465 | 0.472 | 0.916 | 0.355 | 0.588 | 0.476 | 0.902 | 0.682 | 0.505
7 | DPHECYAKVFD [ALB_Y394] | 1.11 | 0.593 | 0.591 | 0.506 | 0.749 | 0.584 | 1.14 | 0.488 | 0.582 | 0.88 | 0.42 | 0.692 | 0.665 | 0.987 | 1.32 | 3.02
8 | DPLLTYLFPPK [LMNA_Y481_R482L] | 2.2 | 0.992 | 0.781 | 4.35 | 2.62 | 0.481 | 1.08 | 1.8 | 0.87 | 2.79 | 0.772 | 0.836 | 3.12 | 0.991 | 1.19 | 0.574
9 | DRLASYLDKAR [KRT14_Y129_V133A] | 0.586 | 0.297 | 0.324 | 0.37 | 0.45 | 0.403 | 0.634 | 0.373 | 0.342 | 0.627 | 0.378 | 0.914 | 0.349 | 0.874 | 0.59 | 0.419
10 | DRLASYLDKMR [KRT17_Y98_V102M] | 0.697 | 0.376 | 0.467 | 0.483 | 0.513 | 0.436 | 0.912 | 0.751 | 0.473 | 0.667 | 0.45 | 0.606 | 0.459 | 1.03 | 0.529 | 0.488
11 | DRLASYLDKVR [KRT10_Y160] | 0.619 | 0.4 | 0.429 | 0.435 | 0.471 | 0.336 | 0.643 | 0.378 | 0.454 | 0.533 | 0.379 | 0.519 | 0.345 | 0.848 | 0.626 | 0.507
12 | DSGRDYVSQFE [APOA1_Y53] | 0.914 | 0.685 | 0.492 | 0.462 | 0.673 | 0.478 | 0.922 | 0.489 | 0.529 | 0.665 | 0.409 | 0.601 | 0.403 | 0.875 | 0.631 | 0.487
13 | DTFDPYLDVAL [USP36_Y268_YF] | 1.18 | 0.641 | 0.622 | 0.658 | 0.857 | 1.52 | 1.24 | 0.704 | 0.701 | 1.25 | 0.557 | 0.833 | 0.712 | 0.707 | 0.953 | 0.414
14 | DTKPVYQNLRQ [BOD1_Y82_A81V] | 0.596 | 0.549 | 0.44 | 0.511 | 0.456 | 0.507 | 0.752 | 1.07 | 1.29 | 0.621 | 0.533 | 0.708 | 1.07 | 20.8 | 1.65 | 3.29
15 | DTQNSYGCATS [TSC1_Y304] | 0.7 | 0.432 | 0.445 | 0.422 | 0.707 | 0.483 | 0.834 | 0.433 | 0.498 | 0.489 | 0.393 | 0.884 | 0.555 | 0.867 | 0.918 | 0.595
16 | DTQNSYWCATS [TSC1_Y304_G305W] | 0.952 | 0.535 | 0.456 | 1.07 | 0.832 | 0.405 | 0.916 | 0.485 | 0.518 | 0.805 | 1.36 | 0.633 | 0.52 | 1.01 | 0.849 | 0.884
17 | DVVKDYAFVHM [RBM14_Y114] | 0.929 | 7.47 | 5.38 | 3.87 | 2.45 | 2.58 | 0.933 | 0.419 | 0.435 | 0.661 | 0.574 | 0.659 | 0.466 | 0.823 | 0.608 | 0.472
